Experimental findings from patent US20240034778A1 (REGENTS OF THE UNIVERSITY OF MICHIGAN, published 2024) are described below.

Substitutions are numbered along the chain they refer to.

For test [1], the target named is T1, disaggregated Aβ (Aβ1-42) (UniProt P05067 672-713).
T1 construct: domain: Aβ1-42; Same peptide as the fibrils, in the disaggregated (soluble) state; also called soluble Aβ; Aβ monomer
Put plainly: immunodot blot, antibody at 10 nM, 45 minute exposure. The protocol: (§1) FIG. 6A includes images of an immunoblot analysis of the conformational and sequence specificity of the selected Aβ antibodies. Disaggregated Aβ and fibrillar Aβ, IAPP, and αSyn were immobilized on nitrocellulose membranes and probed with anti-Aβ antibodies (10 nM in PBS with 1% milk). The blots were imaged after relatively short exposure times (30 seconds) except for AF1 (45 minute exposure). A loading control blot was detected using colloidal silver stain. The experiments were repeated three times and a representative example is shown. FIG. 6B includes images of immunoblot analysis of the conformational and sequence specificity of the selected Aβ antibodies using a long exposure time. The blots were processed and imaged as described in FIG. 6A except that all of the blots were processed after a relatively long exposure time (45 minutes). A loading control blot was detected using colloidal silver stain. The experiments were repeated three times and a representative example is shown.
(§2) The conformational specificity of the selected antibodies was then assessed using immunodot blots (FIG. 6A).

The target of test [2] is T2, Aβ fibrils (fibrils of Aβ1-42) (UniProt P05067 672-713).
T2 construct: domain: Aβ1-42; Fibrillar (aggregated) state of synthetic Aβ1-42; For flow cytometry the fibrils were doped with 1% biotinylated Aβ1-42 and held on streptavidin Dynabeads; for dot blots unlabeled fibrils were spotted on nitrocellulose; also called Aβ42 fibrils; fibrillar Aβ
Put plainly: immunodot blot, antibody at 10 nM, 30 second exposure. The protocol:
as §1, §2

The target in test [3] is T2, Aβ fibrils (fibrils of Aβ1-42). Put plainly: flow cytometry, antibody on Aβ fibril-coated streptavidin beads (fibril batch of FIG. 10). The protocol:
(§3) For affinity analysis, the binding of antibodies to Aβ fibrils was evaluated using streptavidin dynabeads and flow cytometry. Beads were immobilized with 1% biotinylated fibrils as described above. The fibril-coated beads were washed twice with PBSB and then blocked with 10% milk in PBS at room temperature for 1 hour with end-over-end mixing. Afterward, the beads were washed 2× with PBSB.
(§4) Antibodies were thawed and centrifuged at 21000× g for 5 minutes to remove aggregates. The supernatant was transferred to a new tube and the antibody concentration was determined by measuring absorbance at 280 nm. Antibody dilutions were made in PBSB. Fibril-coated beads (1.25×10⁵ beads per evaluated antibody concentration) were incubated with antibodies in 96 well plates (Greiner, 650261) in 1% milk for 3 hours at 25° C.(300 RPM). Next, the plates were centrifuged at 3500 RPM for 5 minutes, the supernatants were discarded, and the beads were washed once with ice-cold PBSB. After washing, the plates were spun down again and the beads with resuspended with 300× diluted goat anti-human Fc AF647 (Jackson Immunoresearch, 109-605-098) on ice for 4-5 minutes. […] Two independent repeats were performed with different batches of beads coated with Aβ fibrils.
(A flow cytometer gives signals particle by particle.)

Test [4] has the same target. Kind of test: flow cytometry, antibody on Aβ fibril-coated streptavidin beads (fibril batch of FIG. 5). The method, then:
as §3, §4

Test [5] shares this target. Put plainly: flow cytometry, antibody on Aβ fibril-coated streptavidin beads. The protocol:
as §3, §4

B1: Clone 101 (Fc fusion)
VH: EVQLVESGGGLVQPGGSLRLSCAASGFNIKDTYIHWVRQAPGKGLEWVARIYPASGSTRYAGSVKGRFTISADTSKNTAYLQMNSLRAEDTAVYYCARDGYDGSYFVGYDYNDFYDYWGQGTLVTVSS
VL: DIQMTQSPSSLSASVGDRVTITCRASQNVYSAVTWYQQKPGKAPKLLIYSASFLYSGVPSRFSGSRSGTDFTLTISSLQPEDFATYYCQQHSTYPPTFGQGTKVEIK
Regarding B1, the binding result in test [1] and in test [2] was “binds” each time.

B2: Clone 97 (Fc fusion)
VH: B1 VH with S57A, G62D
VL: B1 VL with Y30A, S31Y
notes: also called parental antibody (clone 97); 97 WT
For the molecule B2, the 50% effective concentration (EC50) – broadly, the concentration that produces a half-maximal response – amounted to 18 nM in test [3] and 8 nM in test [4].

B3: Clone 93 (Fc fusion)
VH: B1 VH with A54S, S55N, S57Y
VL: B1 VL with S31N, S92N
Regarding B3, the binding result in test [1] and in test [2] was “binds” throughout.

B4: crenezumab (antibody, V domains shown)
VH: EVQLVESGGGLVQPGGSLRLSCAASGFTFSSYGMSWVRQAPGKGLELVASINSNGGSTYYPDSVKGRFTISRDNAKNSLYLQMNSLRAEDTAVYYCASGDYWGQGTTVTVSS
VL: DIVMTQSPLSLPVTPGEPASISCRSSQSLVYSNGDTYLHWYLQKPGQSPQLLIYKVSNRFSGVPDRFSGSGSGTDFTLKISRVEAEDVGVYYCSQSTHVPWTFGQGTKVEIKR
In the case of B4, in test [5], the EC50 was determined as 9 nM.
